Data from the nanobody polyreactivity screen of Harvey et al. (2022).

Experiment: yeast display, Sf9 membrane polyspecificity reagent, FACS + sequencing; frameworks hold sequencing errors
Procedure, shortened: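 Synthetic nanobody libraries on Saccharomyces cerevisiae BJ5465 were galactose-induced for 36–48 hours, stained 1 hour at 4 °C with 10% biotinylated, detergent-solubilized Sf9 membrane reagent and enriched on streptavidin microbeads. FACS then separated cells into low and high (top ~1%) gates by anti-HA (expression) and streptavidin (reagent binding) fluorescence. Genes were colony-PCR amplified, MiSeq 2 × 250 sequenced and CDR-length filtered. A clone's polyreactivity label is that of its gate of origin.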

| Sequence | polyreactivity (PSR sort gate) |
| --- | --- |
| QVQLVESGGRLVQAGGSLRLSCPDSGSTFILNAMGWYRQAHGKERELVATISSSVTSTYYADSVKWRFTISRDHAKNTVYLQMNSLKPEDTAVYYCNADYYTTSYLQRFYHYGVEYDYLGQGTQVTVSS | low polyreactivity |
| QVQLVESGGRLVQAGGSLRLSGAASGIIFRTNAMGWSRQAPGKEREFVAAISAGGTRTYYADSVKGRFTISRDYAKNTVYLQMNSLKPEDTAVYFCAAASGYDYWGQGTQVTVSS | high polyreactivity |
| QVQLVESGGRLVQAGGSLRLSSAPSGSIFFWYAMGWYRQAPGKERELVAAITQRTGSTYYADSVKGRFTISRDNAKNTVYLQMNSLKPEDTAVYYCAAKRLRRSFTGNYWGQGTQVTVSS | high polyreactivity |
| QVQLVESGGRLVQAGGSLRLTCAASGRIFSVNAMGWYRQAPGKERELVAAITPGASTNYADSVKGRFTISRDNAKNTVYLQMTSLKPEDTAVYYCAAGWVSFEDWVLGSYYEYDYWGQGTHVTVSS | low polyreactivity |
| QVQLVESGGRLVQAGGSLRLTCAASGSTFIIYAIGWSRQAPGQERELVAASTSGGSTYYADSVKGRFRISRDNAKNSVYLQMNSLKQEDTAVYYCAARAWRGSFRDGYWGQGTQVTVSS | high polyreactivity |
| QVQLVESGGRLVQAGGSLSLSCAASGIILLHYAMGWYRQAPGKERELVAAISSSGGRTYYADSVKGRFTISRDTAKITFYLQLTSLKPEDTAVYYCNTLTRLVYDGMGYWGQGTQVTVSS | high polyreactivity |
| QVQLVESGGRLVQARGSLRLSCAPSGSIFYSNAMGSYRQAPGKEREFVAGIRSGGITNYADSVKGRFTISRDNAKNTVYLQMTSLKPEDTAVYYCAKLKDHGRYAYAFDYWRQGTQVTVSS | low polyreactivity |
| QVQLVESGGRLVQAVGRLRLSCAASGFIFSRYAMRWYRPAPGKERELVAVISYSGGITYYADSVKGRFTISRDNAKNTVYLQMNSLKPEDTAVYYCAVGGTPRYSKYDYWGQGTQVTVSS | low polyreactivity |
| QVQLVESGGRLVQEGGSLRLSCAASGSSLRSYAMGRYRQAPGKERELLAAISGSGDSTYYADSVKGRFTISRDNAKNTVYLQMNSLKPEDTAVYYCNAVFAFNGYVYWGQGTQVTVSS | low polyreactivity |
| QVQLVESGGRLVQEGGSLRLSCAASGSTFKQYAMGWYRQAPGKEWELVAAISRSGSRTYYADSVKGRFTISRDNAKYTVYLQMNSLKPEDTAVYYCAAERRSTAGWLYDYWGQGTQVTVSS | high polyreactivity |
| QVQLVESGGVIFQAGGILRLICAASGRIFARNAMGWYRQAPGKERELVAAISRSGGPTYYADSVKGRFTISRDNAKNSVYLQMNSLKTEDTGVYYCAADHYPWWAWEFDYWGQGTQVTVSS | low polyreactivity |
| QVQLVESGGVLGQAGGSLRLSCAASGFIFSTYTMAWYRPAPGKERDLVAAISRSGGRTYYADSVKGRFTISRDNAKYTVYLQMNSLKPEDTAVYYCNAAKGGRYPDYDYWGQGTQVTVSS | high polyreactivity |
| QVQLVESGGVLVQAGASLRLSCAASGFTFGFYGMGWYRQAPGKERELVARITWRSGSTYYADSVKGRFTISRDNAKNTVYLQMNSLKPEDTAVYYCNKVPSYDFLGMDYWGLGTQVTVSS | low polyreactivity |
| QVQLVESGGVLVQAGASLRLSCAASGITFVTYAMGWYRQAPGKERELVADISSSGGSSYYADSVKGRFTISLDNAKNTVYLQMNSLKPEDTAVYYWAALATFYPEFDYWGQGTQVTVSS | low polyreactivity |
| QVQLVESGGVLVQAGCSLRLSCASSGITFKYYAMGRYSQAPGKEREFVAYISARGGGTYYADSVKGRFTISRDNAKNSVYLQMNSLKPEDYAVYYFNAGLIYHQLYSNLYDYWGQGTQVTVSS | high polyreactivity |
| QVQLVESGGVLVQAGGILRLSCAASGRIFYGNTMGWYRQAHGKERELVAAISRSGGSTYYADSVKGRFTSSRDNAKNTVYLQMNSLKPEDTAVYYCAAKRSWGYDYWGLGTQVTVSS | high polyreactivity |
| QVQLVESGGVLVQAGGILRLSCAASGSIFYMYAMGWYRQAPGKERELVAAISRSGGRTYYADSVKGRFTISRDNAKNTVYLQMNSLKPEDTAVFYCAARDHYSTGGMKYWGQGTQVTVSS | high polyreactivity |
